Experimental data: patent publication US20110172126A1, “LIBRARIES OF PEPTIDE CONJUGATES AND METHODS FOR MAKING THEM” (XENOME LTD, priority 2008, published 2011)
*1 amine or outer side, *2 acyl side, *3 side chain or, on linkers, in order; H or OH if unused. Bridges are numbered along the chain shown (N, C = ends). Where no end group is shown, it is not given here. [ ]: non-standard residue; d: D form. The star is where a group is joined. 12302 = turn inducer derived from (2S,4R)-Fmoc-4-amino-1-BOC-pyrrolidine-2-carboxylic acid, O=C([C@@H]1C[C@@H](N[*:1])CN1[*:3])[*:2]; Isovaleryl = CC(C)CC(=O)*

Experiments:
Format in all cases: binding
[1] = target: T1, human norepinephrine transporter (hNET) (Homo sapiens, UniProt P23975); conditions: single concentration 10 μM, 3H-nisoxetine displacement
T1 construct: purchased Perkin Elmer Life Sciences RBHNETM400UA
Procedure: The ability of compounds to act as inhibitors of the human norepinephrine transporter (hNET) was measured by competitive inhibition of ^3H-nisoxetine from membrane expressing hNET.
Total assay volume 150 μL (50 μL peptide conjugate, 50 μL tritiated compound and 50 μL membrane) with each data point performed in triplicate. Assay buffer used was TrisHCl (50 mM, pH 7.4), NaCl (120 mM) and KCl (5 mM). Peptide conjugates were initially screened at a single concentration of 10 μM. […] After the addition of the membrane the assay was incubated for 1 h at RT after which the reaction was filtered onto GF filtermats B (Perkin Elmer cat #1450-521) pretreated with 0.6% PEI using a Tomtec cell harvester and washed 3 times using wash buffer (20 mM HEPES pH 7.4, 125 mM NaCl @ 4° C.). Filtermats were then dried, placed in a filter bag, 9 mL betaplate scintillant (Perkin Elmer cat #1205-440) added and filtermats counted on a Wallac Microbeta instrument.

[2] = target: T2, rat sodium channel 1.2 (rNav1.2) (Rattus norvegicus, UniProt P04775); test: rat Nav1.2 channel assay: competitive inhibition of 125H-TIIIA from rat brain homogenate; conditions: single concentration 10 μM
T2 construct: from tissue; host or cells: rat brain homogenate / rat brain membrane
Procedure: A homogeneous assay was used to determine the ability of compounds to act as inhibitors of the rat sodium channel 1.2 (rNav1.2) as measured by competitive inhibition of ^125H-TIIIA from rat brain homogenate.
Total assay volume was 80 μL (20 μL competing ligand, 20 μL, SPA beads, 20 μL rat brain homogenate and 20 μL iodinated ligand). Assay buffer used was HEPES (20 mM pH7.2), MgCl2 (75 mM), EDTA (0.2 mM), EGTA (0.2 mM), BSA (0.1%) and 2% diluted protease inhibitors (Roche cat #1826145). Peptides were initially screened at a single concentration of 10 μM. […] The competing ligands were added to the assay plate followed by Flashblue GPCR scintillating beads at a concentration of 100 μg/well (Perkin Elmer cat #FBB001), rat brain membrane and 30 pM ^125H-TIIIA. After the addition of all reagents the plate was sealed and incubated at RT for 1 h with shaking. The plate was then counted on a Wallac Microbeta instrument.

[3] = target: T3, human delta2 Opioid Receptor (hδ2OR) (Homo sapiens, UniProt P41143); test: hδ2OR assay: competitive inhibition of 3H-Naltrindole from membrane expressing hδ2OR; conditions: single concentration 10 μM
T3 construct: purchased Perkin Elmer Life Sciences RPNQ001
Procedure: A homogeneous assay was used to determine the ability of compounds to act as inhibitors of the hδ2OR as measured by competitive inhibition of ^3H-Naltrindole from membrane expressing hδ2OR.
Total assay volume was 80 μL (20 μL competing ligand, 20 μL SPA beads, 20 μL, membrane and 20 μL tritiated ligand). Assay buffer used was Tris HCl (50 mM, pH 7.4), MgCl2 (5 mM) and BSA (0.1%). Peptides were initially screened at a single concentration of 10 μM. Confirmation of any hits was performed using full dose response of the peptide using various concentrations (10^−4 to 10^−11M) or control ligand (Naltriben). The competing ligands were added to the assay plate followed by SPA beads at a concentration of 100 μg/well (GE Healthcare, Amersham Cat. #FBB001) and […] (Perkin Elmer Life Sciences Cat #RPNQ001). This was followed by 1.6 nM […] [for a final concentration 0.4 nM] (Perkin Elmer Cat #NET1065), after which the plate was sealed and incubated at RT for 1 hr with shaking. The plate was then counted on a Wallac Microbeta instrument.

T3 sequence (P41143 whole entry): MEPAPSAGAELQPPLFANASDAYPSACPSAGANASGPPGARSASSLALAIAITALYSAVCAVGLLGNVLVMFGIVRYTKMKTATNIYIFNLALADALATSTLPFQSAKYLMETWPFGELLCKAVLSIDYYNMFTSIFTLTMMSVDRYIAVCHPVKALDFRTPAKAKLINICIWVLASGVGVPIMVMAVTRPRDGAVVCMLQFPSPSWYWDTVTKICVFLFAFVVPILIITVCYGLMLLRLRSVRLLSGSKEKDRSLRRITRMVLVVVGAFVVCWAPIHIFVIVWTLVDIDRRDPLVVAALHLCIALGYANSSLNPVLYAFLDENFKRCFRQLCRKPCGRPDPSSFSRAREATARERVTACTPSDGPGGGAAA
T2 sequence (P04775 whole entry): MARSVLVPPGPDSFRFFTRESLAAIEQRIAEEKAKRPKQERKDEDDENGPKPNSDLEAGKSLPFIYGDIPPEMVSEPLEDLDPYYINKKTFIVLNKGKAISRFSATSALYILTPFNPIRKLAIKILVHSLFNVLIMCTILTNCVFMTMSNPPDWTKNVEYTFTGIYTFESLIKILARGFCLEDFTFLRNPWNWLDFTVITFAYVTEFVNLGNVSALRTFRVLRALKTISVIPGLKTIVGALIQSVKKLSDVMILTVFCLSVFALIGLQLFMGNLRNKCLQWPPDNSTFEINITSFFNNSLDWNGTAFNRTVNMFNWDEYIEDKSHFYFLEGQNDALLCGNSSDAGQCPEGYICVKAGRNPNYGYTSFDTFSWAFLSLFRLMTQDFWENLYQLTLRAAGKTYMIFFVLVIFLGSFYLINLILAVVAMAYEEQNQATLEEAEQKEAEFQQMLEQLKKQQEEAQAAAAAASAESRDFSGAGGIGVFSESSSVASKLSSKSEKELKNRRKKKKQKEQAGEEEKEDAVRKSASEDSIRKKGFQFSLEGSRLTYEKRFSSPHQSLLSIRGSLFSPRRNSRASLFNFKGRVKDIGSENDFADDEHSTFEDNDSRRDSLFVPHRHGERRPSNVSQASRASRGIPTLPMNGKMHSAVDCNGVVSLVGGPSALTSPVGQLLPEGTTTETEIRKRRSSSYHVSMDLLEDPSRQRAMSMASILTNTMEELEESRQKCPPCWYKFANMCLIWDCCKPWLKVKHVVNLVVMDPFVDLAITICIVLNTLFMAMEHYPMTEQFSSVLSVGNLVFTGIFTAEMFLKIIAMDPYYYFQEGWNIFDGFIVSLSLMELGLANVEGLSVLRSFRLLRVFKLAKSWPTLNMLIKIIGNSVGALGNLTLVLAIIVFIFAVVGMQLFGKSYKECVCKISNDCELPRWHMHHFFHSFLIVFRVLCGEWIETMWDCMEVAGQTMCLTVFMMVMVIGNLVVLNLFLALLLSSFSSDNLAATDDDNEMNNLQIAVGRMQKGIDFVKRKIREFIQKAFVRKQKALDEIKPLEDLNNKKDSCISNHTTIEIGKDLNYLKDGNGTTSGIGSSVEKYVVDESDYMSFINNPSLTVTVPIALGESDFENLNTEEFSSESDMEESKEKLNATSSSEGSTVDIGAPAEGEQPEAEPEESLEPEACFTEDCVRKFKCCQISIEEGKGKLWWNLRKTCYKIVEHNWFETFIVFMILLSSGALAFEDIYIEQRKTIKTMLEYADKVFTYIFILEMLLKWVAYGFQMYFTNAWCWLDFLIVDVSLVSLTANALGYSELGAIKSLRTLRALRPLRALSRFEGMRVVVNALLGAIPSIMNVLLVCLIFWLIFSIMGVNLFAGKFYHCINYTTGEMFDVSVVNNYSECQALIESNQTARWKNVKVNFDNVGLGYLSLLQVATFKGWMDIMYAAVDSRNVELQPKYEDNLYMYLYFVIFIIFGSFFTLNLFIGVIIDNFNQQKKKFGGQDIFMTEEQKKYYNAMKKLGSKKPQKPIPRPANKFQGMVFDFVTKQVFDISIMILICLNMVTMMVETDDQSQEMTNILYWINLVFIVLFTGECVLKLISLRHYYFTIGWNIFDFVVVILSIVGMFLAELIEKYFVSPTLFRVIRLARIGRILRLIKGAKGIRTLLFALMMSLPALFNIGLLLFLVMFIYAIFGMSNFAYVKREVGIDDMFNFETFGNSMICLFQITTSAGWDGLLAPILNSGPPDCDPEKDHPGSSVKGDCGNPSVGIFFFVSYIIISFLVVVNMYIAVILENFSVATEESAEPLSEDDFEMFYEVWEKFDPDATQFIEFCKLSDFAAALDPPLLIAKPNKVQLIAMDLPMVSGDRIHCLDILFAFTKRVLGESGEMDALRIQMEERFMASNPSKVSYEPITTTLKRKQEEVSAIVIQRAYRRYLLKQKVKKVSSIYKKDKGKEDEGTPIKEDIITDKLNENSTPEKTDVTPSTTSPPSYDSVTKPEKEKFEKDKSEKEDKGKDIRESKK
T1 sequence (P23975 whole entry): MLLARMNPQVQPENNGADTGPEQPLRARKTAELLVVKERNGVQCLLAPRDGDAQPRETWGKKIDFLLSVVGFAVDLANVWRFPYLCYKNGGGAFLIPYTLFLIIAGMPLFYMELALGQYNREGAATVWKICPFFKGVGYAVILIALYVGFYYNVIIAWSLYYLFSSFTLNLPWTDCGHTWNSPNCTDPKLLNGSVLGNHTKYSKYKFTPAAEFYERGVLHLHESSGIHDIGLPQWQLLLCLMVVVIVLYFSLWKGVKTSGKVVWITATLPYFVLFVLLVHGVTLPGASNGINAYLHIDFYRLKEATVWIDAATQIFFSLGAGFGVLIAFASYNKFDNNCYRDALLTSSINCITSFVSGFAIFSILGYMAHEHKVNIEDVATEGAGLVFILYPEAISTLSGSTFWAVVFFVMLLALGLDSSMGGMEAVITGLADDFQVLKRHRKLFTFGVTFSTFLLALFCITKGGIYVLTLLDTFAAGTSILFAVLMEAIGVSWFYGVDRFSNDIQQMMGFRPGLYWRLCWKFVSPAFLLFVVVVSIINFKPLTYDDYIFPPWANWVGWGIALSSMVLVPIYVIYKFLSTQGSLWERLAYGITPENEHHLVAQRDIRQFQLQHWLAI

Row | Substance | % inhib @ 10 μM [1] [%] | % inhib @ 10 μM [2] [%] | % inh @ 10 μM [3] [%]
1 | 6 (CV[H2NNH:CHNH(CH2)3CO]KC; disulfide 1-5 (inferred); not fully specified) [compound 6] | 94 | >70 | –
2 | 47 (CF[12302](Isovaleryl)YC; disulfide 1-5 (inferred)) [compound 47] | – | – | >80
3 | 46 (CF[12302](cyclohex‑CH2—CO)YC; disulfide 1-5 (inferred)) [compound 46] | – | – | >80
